The results in this text go back to the supplement of paper PMC9170038.

The series concerns MS2 coat protein. The series is described as follows: apparent KD of MS2 coat protein; designed switch direction (-1 OFF switch, 1 ON switch): -1; higher = weaker reporter binding. The gist of the method:
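An oligonucleotide input, 200 uM small-molecule ligand, or no input was present during titration of SNAP-549-labelled MS2 coat protein, which was doubled from 0.7 or 1.5 nM to 3 µM. Designed RNA switches had been transcribed on Illumina chips by stalled E. coli RNA polymerase. Apparent KD per design is the median over clusters of curves fitted to normalised cluster fluorescence.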

[1] abbreviates: input ligand: microRNA oligo, concentration not stated.
The mark [2] stands for this setting: Eterna round: R95, input ligand: microRNA oligo, concentration not stated.

As for “UCUCUUGGGCAAGGAUAUCCUGCGCGGUUCCGGUUCGUGUCUGUCACAUGAGGAUCACCCAUGUGGGAGAAGGUGCCUGCGGUU [Design 76] (Eterna round: R96, puzzle: Exclusion NG 2)”, the “apparent KD of MS2 coat protein” value under setting [1] is 13.1 nM.
For the sequence “UCUGGGUCUGUGAGGAUAUCGGGCCCGAAAGGGCCCGAGAAGGCACAUGAGGAUCACCCAUGUAAGGGCUCGGG [-38.4, -36.3 kcal, A 23%, 0-7bis] (Eterna round: R97, puzzle: Brourd's mod of Exclusion 4)”, the “apparent KD of MS2 coat protein” value by setting is: (input ligand: FMN 200 uM) 20.3 nM; (input ligand: none) 25 nM.
For “UCUUACUGAGGAUAUACAUAGAUUUACAUGAGGAUCACCCAUGUUCCUCUAUGUAUAAAUGUAGAAGGCAGAAGAA [Mat - Exclusion 5 - JL Mod - D53] (Eterna round: R97, puzzle: Exclusion 5)”, in that order: 82.6 nM and 17.8 nM.
In the same order, the values of “UCUUAGCAAGCAAAUGGGUACAUGAGGAUCACCCAUGUGCUCGUCUUAUAAGGUACUGUGACGAAAGUCACGGUACC [mod--Eli8] (Eterna round: R97, puzzle: Sensor, turn-off variant 1)” are 24.7 nM and 19.5 nM.
In the same order, the values of “UCUUUGUUUGUGAGGAUAUCGGUGGGAUGGGUUGUCGAGAAGGCACAUGAGGAUCACCCAUGUGAGGGACAGCA [JR_BMEx4_Sub028] (Eterna round: R97, puzzle: Brourd's mod of Exclusion 4)” are 16.6 nM and 16.2 nM.
As for “UGAAUACGUGUUAGGAUAUGGUUUGGUAUUUCGGGCUAGAAGGGACAUGAGGAUCACCCAUGUAAUUGAUAGGU [-16.2, -13.6 kcal, 27% A] (Eterna round: R97, puzzle: Brourd's mod of Exclusion 4)”, the “apparent KD of MS2 coat protein” value was found to be 52.4 nM (input ligand: FMN 200 uM) and 38.5 nM (input ligand: none).
Turning to “UGAGUGCUGCGAGGAUAUACAUGAGGAUCACCCAUGUAAUCGUGUGAGGCAAAGCCUCACACGAAGUAGAAGGCGCAGUACUCU [Mat - Exclusion NG 2 - Mod of JL - D17] (Eterna round: R96, puzzle: Exclusion NG 2)”, the “apparent KD of MS2 coat protein” value was 16 nM (input ligand: FMN 200 uM), 11.4 nM under setting [1] and 18.5 nM (input ligand: none).
In the same order, the values of “UGAGUGCUGCGAGGAUAUACAUGAGGAUCACCCAUGUAAUCGUGUGAGGCUAUGCCUCACACGAAGUAGAAGGCGCAGUACUCU [Mat - Exclusion NG 2 - Mod of JL - D16] (Eterna round: R96, puzzle: Exclusion NG 2)” are 9.98 nM, 8.33 nM and 9.63 nM.
For “UGAUCUAGCGGAGGAUAUACAUGAGGAUCACCCAUGUAAAUCGCUUUACCGUAGUGAAGCAUCAUGUAGAAGGCCGCUAGAUCU [MOD3 ENG2 3.62 by JL] (Eterna round: R96, puzzle: Exclusion NG 2)”, in that order: 59.3 nM, 480 nM and 592 nM.
In the same order, the values of “UGAUCUAGCGGAGGAUAUACAUGAGGAUCACCCAUGUAGAAUCCAUGACCGUAGUCGUGGAUCGUGUAGAAGGCCGCUAGAUCU [JL ENG2 3.71] (Eterna round: R96, puzzle: Exclusion NG 2)” are 21.8 nM, 9 nM and 12.5 nM.
Regarding “UGAUCUAGCGGAGGAUAUACAUGAGGAUCACCCAUGUAGAUAACUGCACCGUAGUGUAGUAUUGUGUAGAAGGCCGCUAGAUCU [JL ENG2 3.65] (Eterna round: R96, puzzle: Exclusion NG 2)”, the “apparent KD of MS2 coat protein” value (input ligand: FMN 200 uM) amounted to 26.8 nM, the “apparent KD of MS2 coat protein” value under setting [1] came to 11.4 nM and the “apparent KD of MS2 coat protein” value (input ligand: none) is 14.2 nM.
For “UGAUCUAGCGGAGGAUAUACAUGAGGAUCACCCAUGUAGGAUCCAUGACCGUAGUCGUGGAUCGUGUAGAAGGCCGCUAGAUCU [JL ENG2 3.70] (Eterna round: R96, puzzle: Exclusion NG 2)”, in that order: 13 nM, 8.14 nM and 13.1 nM.
For the sequence “UGAUCUAGCGGAGGAUAUACAUGAGGAUCACCCAUGUAGUAGUCUGUACCGUAGUGCAGACUUGUGUAGAAGGCCGCUAGAUCU [JL ENG2 3.61] (Eterna round: R96, puzzle: Exclusion NG 2)”, the “apparent KD of MS2 coat protein” value (input ligand: FMN 200 uM) stood at 15.8 nM, the “apparent KD of MS2 coat protein” value under setting [1] stood at 10.8 nM and the “apparent KD of MS2 coat protein” value (input ligand: none) was 14.1 nM.
In the case of “UGAUCUUUUGUUAGGAUAUGCUGGGUUUUUUCUCAGCAGAAGGGACAUGAGGAUCACCCAUGUUUUGUCAUAAA [Magic-07] (puzzle: Brourd's mod of Exclusion 4)”, the “apparent KD of MS2 coat protein” value under setting [2] stood at 20.3 nM.
With “UGAUCUUUUGUUAGGAUAUGCUGUUUUUUUUUUCAGCAGAAGGGACAUGAGGAUCACCCAUGUUUUGUCAUAAA [Magic-06] (Eterna round: R96, puzzle: Brourd's mod of Exclusion 4)”, the “apparent KD of MS2 coat protein” value was 45 nM (input ligand: FMN 200 uM), 24.1 nM under setting [1] and 33 nM (input ligand: none).
As to “UGAUCUUUUGUUAGGAUAUGCUGUUUUUUUUUUCAGCAGAAGGGACAUGAGGAUCACCCAUGUUUUGUCAUAAA [Magic-06] (puzzle: Brourd's mod of Exclusion 4)”, the “apparent KD of MS2 coat protein” value under setting [2] turned out to be 14.4 nM.
In the case of “UGAUUGAUUAACAGAUUAUACAUGAGGAUCACCCAUGUAGGUCCUACGUGCACUUUAUGCAGCUCGUCUUAUUCCCA [Sensor-V1 #71] (Eterna round: R97, puzzle: Sensor, turn-off variant 1)”, the “apparent KD of MS2 coat protein” value reads like this: (input ligand: FMN 200 uM) 34.4 nM; (input ligand: none) 36.5 nM.
In the same order, the values of “UGAUUGUUUACCAGAUUAUACAUGAGGAUCACCCAUGUAGAUCCUACGUGCACGUUAUACAGCUCGUCUUAUUCCCA [Sensor-V1 #74] (Eterna round: R97, puzzle: Sensor, turn-off variant 1)” are 35.4 nM and 36.2 nM.
In the same order, the values of “UGAUUGUUUACCAGAUUAUACAUGAGGAUCACCCAUGUAGAUCCUACGUGCACGUUAUGCAGCUCGUCUUAUUCCCA [Sensor-V1 #73] (Eterna round: R97, puzzle: Sensor, turn-off variant 1)” are 40.3 nM and 44.1 nM.
In the case of “UGCAUGUGAGGAUAUGUGUACUGUUUUUUGUUUAGAUGUACACAGAAGGCACAUGAGGAUCACCCAUGUAGUAC [Ex4 - 3 - 33] (puzzle: Exclusion 4)”, the “apparent KD of MS2 coat protein” value under setting [2] was 46.1 nM.
For the sequence “UGCCAGAAAGGAUAUACAGCCCGGGCGUUCCUGCGAUAUAUACAUGAGGAUCACCCAUGUAGAAGGUUCGGCGG [EX2 C.12] (Eterna round: R97, puzzle: Exclusion 2)”, the “apparent KD of MS2 coat protein” value is, setting by setting: (input ligand: FMN 200 uM) 33.1 nM; (input ligand: none) 28.5 nM.
In the same order, the values of “UGCGGGCUUCUGAGACCUCACAUGAGGAUCACCCAUGUGCUUGUCUUGUAAGUGGGUAGGUCGUUGGCUGACUCACA (Eterna round: R97, puzzle: Sensor, turn-off variant 1)” are 18.2 nM and 17.8 nM.
For “UGCUGACGAGGAUAUACAUGAGGAUCACCCAUGUUGGUCAAGCGACGAUAGUCGCAAUGUAGAAGGUGUCAGCA [E3/8-B1] (Eterna round: R97, puzzle: Exclusion 3)”, in that order: 694 nM and 114 nM.
